# Values of other authors as cited in patent US20260007686A1, “COMPOSITIONS AND METHODS FOR IMPROVING VISION” (Ripple Therapeutics Corporation, priority 2022, published 2026).
# B1: ranibizumab (antibody, chains of the INN, looked up, V domains shown)
# VH: EVQLVESGGGLVQPGGSLRLSCAASGYDFTHYGMNWVRQAPGKGLEWVGWINTYTGEPTYAADFKRRFTFSLDTSKSTAYLQMNSLRAEDTAVYYCAKYPYYYGTSHWYFDVWGQGTLVTVSS
# VL: DIQLTQSPSSLSASVGDRVTITCSASQDISNYLNWYQQKPGKAPKVLIYFTSSLHSGVPSRFSGSGSGTDFTLTISSLQPEDFATYYCQQYSTVPWTFGQGTKVEIK
# modifications: Fab
# notes: ranibizumab injection, a clinically approved anti-VEGF intravitreal injection
# How the values were obtained:
# [1] = test system: visual acuity of individuals with diabetic macular edema (DME); conditions: literature studies (Boyer et al.; Callanan et al.)
# [2] = test system: macular edema in individuals with diabetic macular edema (DME); conditions: literature studies (Boyer et al.; Callanan et al.)
molecule,measurement,setting,value
B1,Mean Change in BCVA at M3,[1]; month 3,+6 letters
same,Mean Change in BCVA at M6,[1]; month 6,+8 letters
same,Mean Change in CST at M3,[2]; month 3,−140 μm
same,Mean Change in CST at M6,[2]; month 6,−133 μm
